# Laboratory results reported in patent publication US20240117018A1.
# Columns and labels:
# Test in all cases: cell-based or functional assay
# [1] = target: Env of HIV-1 pseudovirus 191084 B7-19 (HIV-1)
# [2] = target: Env of HIV-1 pseudovirus 246F C1G (HIV-1)
# [3] = target: Env of HIV-1 pseudovirus 249M B10 (HIV-1)
# [4] = target: Env of HIV-1 pseudovirus BF1266.431a (HIV-1)
# [5] = target: Env of HIV-1 pseudovirus CAP45.2.00.G3 (HIV-1)
# [6] = target: Env of HIV-1 pseudovirus CNE19 (HIV-1)
# [7] = target: Env of HIV-1 pseudovirus CNE21 (HIV-1)
# [8] = target: Env of HIV-1 pseudovirus CNE53 (HIV-1)
# [9] = target: Env of HIV-1 pseudovirus Ce1086_B2 (HIV-1)
# [10] = target: Env of HIV-1 pseudovirus Ce2060_G9 (HIV-1)
# [11] = target: Env of HIV-1 pseudovirus Ce704809221_1B3 (HIV-1)
# [12] = target: Env of HIV-1 pseudovirus HIV-16845-2.22 (HIV-1)
# [13] = target: Env of HIV-1 pseudovirus MS208.A1 (HIV-1)
# [14] = target: Env of HIV-1 pseudovirus T250-4 (HIV-1)
# [15] = target: Env of HIV-1 pseudovirus ZM135M.PL10a (HIV-1)
# [16] = target: Env of HIV-1 pseudovirus ZM197M.PB7 (HIV-1)
# [17] = target: HIV-1 Env pseudovirus 1012_11_TC21_3257 (HIV-1)
# [18] = target: HIV-1 Env pseudovirus 246F C1G (HIV-1)
# [19] = target: HIV-1 Env pseudovirus 249M B10 (HIV-1)
# [20] = target: HIV-1 Env pseudovirus AC10.0.29 (HIV-1)
# [21] = target: HIV-1 Env pseudovirus CNE53 (HIV-1)
# [22] = target: HIV-1 Env pseudovirus Ce0682_E4 (HIV-1)
# [23] = target: HIV-1 Env pseudovirus Ce1086_B2 (HIV-1)
# [24] = target: HIV-1 Env pseudovirus Du156.12 (HIV-1)
# [25] = target: HIV-1 Env pseudovirus HIV-0013095-2.11 (HIV-1)
# [26] = target: HIV-1 Env pseudovirus HIV-16055-2.3 (HIV-1)
# [27] = target: HIV-1 Env pseudovirus Q259.d2.17 (HIV-1)
# [28] = target: HIV-1 Env pseudovirus Q842.d12 (HIV-1)
# [29] = target: HIV-1 Env pseudovirus QH0692.42 (HIV-1)
# [30] = target: HIV-1 Env pseudovirus REJO4541.67 (HIV-1)
# [31] = target: HIV-1 Env pseudovirus WEAU_d15_410_787 (HIV-1)
# [32] = target: HIV-1 Env pseudovirus ZM249M.PL1 (HIV-1)
# [33] = target: HIV-1 Env pseudovirus X1254_c3 (HIV-1)
# [34] = target: HIV-1 Env pseudovirus X2131_C1_B5 (HIV-1)
substance,measurement,setting,value
10E8 (antibody),IC50,[1],5.16 µg/mL
same,IC80,[1],> 10 µg/mL
same,IC50,[2],2.22 µg/mL
same,IC80,[2],9.94 µg/mL
same,IC50,[3],1.27 µg/mL
same,IC80,[3],9.05 µg/mL
same,IC50,[4],2.69 µg/mL
same,IC80,[4],> 10 µg/mL
same,IC50,[5],1.82 µg/mL
same,IC80,[5],> 10 µg/mL
same,IC50,[6],0.666 µg/mL
same,IC80,[6],6.49 µg/mL
same,IC50,[7],1.9 µg/mL
same,IC80,[7],> 10 µg/mL
same,IC50,[8],0.326 µg/mL
same,IC80,[8],1.92 µg/mL
same,IC50,[9],1.16 µg/mL
same,IC80,[9],6.93 µg/mL
same,IC50,[10],3.52 µg/mL
same,IC80,[10],> 10 µg/mL
same,IC50,[11],0.058 µg/mL
same,IC80,[11],0.319 µg/mL
same,IC50,[12],0.068 µg/mL
same,IC80,[12],0.495 µg/mL
same,IC50,[13],0.609 µg/mL
same,IC80,[13],3.72 µg/mL
same,IC50,[14],1.35 µg/mL
same,IC80,[14],8.13 µg/mL
same,IC50,[15],0.171 µg/mL
same,IC80,[15],1.19 µg/mL
same,IC50,[16],0.148 µg/mL
same,IC80,[16],0.802 µg/mL
N49P11 (antibody),IC50,[17],10.6 µg/mL
same,IC80,[17],29.3 µg/mL
same,MPI,[17],100
same,IC50,[18],8.48 µg/mL
same,IC80,[18],20.9 µg/mL
same,MPI,[18],100
same,IC50,[19],3.54 µg/mL
same,IC80,[19],12.9 µg/mL
same,MPI,[19],100
same,IC50,[20],5.52 µg/mL
same,IC80,[20],20 µg/mL
same,MPI,[20],100
same,IC50,[21],0.43 µg/mL
same,IC80,[21],2.88 µg/mL
same,MPI,[21],100
same,IC50,[22],0.091 µg/mL
same,IC80,[22],0.387 µg/mL
same,MPI,[22],100
same,IC50,[23],2.19 µg/mL
same,IC80,[23],11.7 µg/mL
same,MPI,[23],100
same,IC50,[24],2.4 µg/mL
same,IC80,[24],12 µg/mL
same,MPI,[24],100
same,IC50,[25],5.85 µg/mL
same,IC80,[25],17.8 µg/mL
same,MPI,[25],100
same,IC50,[26],0.091 µg/mL
same,IC80,[26],0.503 µg/mL
same,MPI,[26],100
same,IC50,[27],8.42 µg/mL
same,IC80,[27],21.4 µg/mL
same,MPI,[27],100
same,IC50,[28],0.027 µg/mL
same,IC80,[28],0.103 µg/mL
same,MPI,[28],100
same,IC50,[29],0.55 µg/mL
same,IC80,[29],2.65 µg/mL
same,MPI,[29],100
same,IC50,[30],10.8 µg/mL
same,IC80,[30],27.1 µg/mL
same,MPI,[30],100
same,IC50,[31],1.7 µg/mL
same,IC80,[31],6.02 µg/mL
same,MPI,[31],100
same,IC50,[32],3.64 µg/mL
same,IC80,[32],17.4 µg/mL
same,MPI,[32],100
VRC01 (antibody),IC50 (Titer in TZM.bl cells),[17],0.12 µg/mL
same,IC80 (Titer in TZM.bl cells),[17],0.32 µg/mL
same,IC50 (Titer in TZM.bl cells),[18],> 10 µg/mL
same,IC80 (Titer in TZM.bl cells),[18],> 10 µg/mL
same,IC50 (Titer in TZM.bl cells),[19],0.13 µg/mL
same,IC80 (Titer in TZM.bl cells),[19],0.46 µg/mL
same,IC50 (Titer in TZM.bl cells),[20],2.2 µg/mL
same,IC80 (Titer in TZM.bl cells),[20],6.5 µg/mL
same,IC50 (Titer in TZM.bl cells),[22],0.08 µg/mL
same,IC80 (Titer in TZM.bl cells),[22],0.48 µg/mL
same,IC50 (Titer in TZM.bl cells),[23],0.42 µg/mL
same,IC80 (Titer in TZM.bl cells),[23],1.44 µg/mL
same,IC50 (Titer in TZM.bl cells),[24],0.09 µg/mL
same,IC80 (Titer in TZM.bl cells),[24],0.193 µg/mL
same,IC50 (Titer in TZM.bl cells),[25],0.11 µg/mL
same,IC80 (Titer in TZM.bl cells),[25],0.33 µg/mL
same,IC50 (Titer in TZM.bl cells),[26],0.08 µg/mL
same,IC80 (Titer in TZM.bl cells),[26],0.26 µg/mL
same,IC50 (Titer in TZM.bl cells),[27],0.17 µg/mL
same,IC80 (Titer in TZM.bl cells),[27],0.54 µg/mL
same,IC50 (Titer in TZM.bl cells),[28],0.03 µg/mL
same,IC80 (Titer in TZM.bl cells),[28],0.096 µg/mL
same,IC50 (Titer in TZM.bl cells),[29],1.5 µg/mL
same,IC80 (Titer in TZM.bl cells),[29],4.8 µg/mL
same,IC50 (Titer in TZM.bl cells),[30],0.06 µg/mL
same,IC80 (Titer in TZM.bl cells),[30],0.25 µg/mL
same,IC50 (Titer in TZM.bl cells),[31],0.12 µg/mL
same,IC80 (Titer in TZM.bl cells),[31],0.26 µg/mL
same,IC50 (Titer in TZM.bl cells),[33],0.07 µg/mL
same,IC80 (Titer in TZM.bl cells),[33],0.19 µg/mL
same,IC50 (Titer in TZM.bl cells),[34],0.51 µg/mL
same,IC80 (Titer in TZM.bl cells),[34],1.54 µg/mL
same,IC50 (Titer in TZM.bl cells),[32],0.05 µg/mL
same,IC80 (Titer in TZM.bl cells),[32],0.23 µg/mL
